Source: patent publication US7291673B2, “Conjugate addition reactions for the controlled delivery of pharmaceutically active compounds” (Eidgenossiche Technische Hochschule Zurich, priority 2000, dated 2007)
Non-standard residues stand in square brackets, D forms with d. Residues, ends and D or L forms follow the SMILES beside them. No end group written: not given here.

Experiments:
[1] = tested on: human umbilical vein endothelial cells; test: Endothelial cell spreading on photopolymerized PEG gels containing peptides; type: cell-based; details: 400 cells per mm^2; normal cell culture medium
Method: Polyethylene glycol diacrylate of mol. wt. 8000 (230 mg/ml) was allowed to dissolve in HEPES buffered saline (10 mmol HEPES, Sigma, 8 g/L NaCl, pH 7.4) for one hour. Triethanolamine (Aldrich, 15.3 μl/ml) was added, and the pH of the solution was adjusted to pH 8 with 6 N HCl. Cysteine containing peptides were dissolved in 116.5 μl of HEPES buffered saline, and added to 870 μl of the PEG solution with vortexing. After 5 minutes, 3.5 μl of N-vinyl pyrrolidone and 10 μl of a 10 mM solution of Eosin Y were added, followed by vortexing. Gels were formed by exposure to light at 75 mW/cm^2 for one minute (Cermax Xenon Lightsource, transmitting light between 470 and 520 nm; ILC Technology, Sunnyvale, Calif., USA). Gels were allowed to swell in Tris buffered saline, pH 7.4 (4.36 g Tris HCl, 0.64 g Trizma base, 8 g NaCl, 0.2 g KCl per 1 L, all from Sigma) for 36 hr.
PEG gels were prepared as described above, using the peptide […]. Most cells have receptors that recognize the sequence GRGDSPG (SEQ ID NO: 74), and cells will interact with surfaces displaying immobilized RGD containing peptides. […] Cells were seeded onto the gels at a concentration of 400 cells per mm^2, and the number of spread cells per area were counted at different times (see FIG. 6). […]

plasmin = plasmin (Homo sapiens, UniProt P00747); test: Plasmin stability of peptides by analytical C18 HPLC; type: biochemical; details: 37° C.; plasmin at 1/1000 the peptide concentration
Excerpt: Analytical C18 HPLC (linear acetonitrile gradient over 0.1% TFA in water) was used to confirm the relative plasmin-stability of GCY-DLys-N-DArg-DCG. The following samples were run: plasmin; […]; plasmin+[…]; GCY-DLys-N-DArg-DCG; and plasmin+GCY-DLys-N-DArg-DCG.

[2] = Dissolution of albumin particles in PEG solutions; type: physicochemical
Excerpt: For the gels in which controlled release was observed, protein particles could be seen within the gels for the entire period of release. For all gels, the disappearance of protein particles from the gel was coincident with the completion of delivery of greater than 90% of the protein in the gel. Thus, the solubility of bovine serum albumin in PEG-containing solutions was likely the most important factor in realizing controlled release of the protein. When a solution containing dissolved albumin was mixed with a solution containing dissolved PEG, the albumin precipitated, dependent upon the concentrations and the molecular weight of the PEG. Similarly, when particles of bovine serum albumin were added to a PEG solution, the kinetics of dissolution of the albumin were strongly affected by the presence of PEG. The albumin solids completely dissolved in 50 mM PBS buffer, pH 7.4 in three minutes in the absence of PEG. With 10% PEG molecular weight 8000 in solution, the time to dissolution of the albumin particles increased to six minutes. […] With 20% PEG molecular weight 8000, the protein particles dissolved to form a second liquid phase within one hour. This was presumably a true coacervate with one protein-rich, polymer-poor phase, and one polymer-rich, protein-poor phase.

[3] = Water solubility of peptide; type: physicochemical
Method: The peptide […] (SEQ ID NO: 58) was designed to be sensitive to hydrolysis by the enzyme plasmin, to contain more than one thiol (cysteine) for addition reaction with conjugated unsaturated groups, and to be very water soluble. The peptide was synthesized according to the methods described above. The peptide was extremely water soluble, up to at least 120 mg/ml.

[4] = biological target: T1, Collagenase (Matrix metalloproteinase I) (Homo sapiens, UniProt P03956); details: cited from earlier work
T1 sequence (P03956 100-469): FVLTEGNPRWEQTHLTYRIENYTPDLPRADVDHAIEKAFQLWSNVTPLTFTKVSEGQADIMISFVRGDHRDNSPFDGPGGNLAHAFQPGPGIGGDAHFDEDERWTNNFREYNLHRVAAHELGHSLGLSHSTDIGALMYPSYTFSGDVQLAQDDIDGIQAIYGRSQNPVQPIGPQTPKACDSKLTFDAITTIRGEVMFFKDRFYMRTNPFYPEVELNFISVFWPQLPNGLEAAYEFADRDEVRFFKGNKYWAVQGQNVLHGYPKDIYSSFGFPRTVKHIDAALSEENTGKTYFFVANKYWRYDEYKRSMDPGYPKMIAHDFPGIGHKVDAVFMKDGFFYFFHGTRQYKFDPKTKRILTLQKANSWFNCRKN

[5] = tested on: Human foreskin fibroblasts; test: Fibroblast adhesion and spreading on conjugate addition gels; type: cell-based; details: 6 hours post-seeding; RGD peptide on one of every 12 acrylates
Method: Conjugate addition gels were made with 0.1 g/ml PEG-2500-3A and 1.1 acrylates per sulfhydryl in […]. The gels were swollen for 24 hours in Dulbecco's modified Eagle's medium (some in serum-free conditions and some in 10% fetal bovine serum) containing 1% antibiotic and antimycotic agents. Human foreskin fibroblasts (passage 7; passaged with trypsin/EDTA) were seeded onto the gels. […] The cells became increasingly clumped together. The cellular behavior was independent of serum in the medium. Control cells seeded on tissue culture treated polystyrene spread normally.
Conjugate addition gels were made with PEG-2500-3A, […], and an RGD-containing peptide ([…]) incorporated in a pendant fashion. The gels were made with 0.1 g PEG-2500-3A/ml and 1.1 acrylates per sulfhydryl in […]. The gels were swollen for more than 36 hours in Dulbecco's modified Eagle's medium (some in serum-free conditions and some in 10% fetal bovine serum) containing 1% antibiotic and antimycotic agents. When the RGD peptide was incorporated on one of every 12 acrylates of the PEG-2500-3A, human foreskin fibroblasts (passage 8; passaged by trypsin/EDTA) adhered to the gels (both those swollen in serum-free conditions and those in serum-containing medium). At 6 hours post-seeding, the cells were uniformly distributed over the gel surface, and approximately 50% of the seeded cells were spread (in both medium conditions). […]

[6] = cited from earlier work

plasmin, sequence (P00747 581-810 limits assumed, species assumed): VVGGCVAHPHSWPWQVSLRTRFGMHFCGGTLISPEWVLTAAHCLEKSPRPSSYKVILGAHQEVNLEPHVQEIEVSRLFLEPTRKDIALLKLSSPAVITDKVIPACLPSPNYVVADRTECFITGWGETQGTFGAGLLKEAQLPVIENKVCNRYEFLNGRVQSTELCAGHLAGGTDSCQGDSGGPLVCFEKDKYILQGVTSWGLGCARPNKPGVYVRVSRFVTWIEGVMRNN
plasmin, sequence (P00747 97-580 partner limits assumed, species assumed): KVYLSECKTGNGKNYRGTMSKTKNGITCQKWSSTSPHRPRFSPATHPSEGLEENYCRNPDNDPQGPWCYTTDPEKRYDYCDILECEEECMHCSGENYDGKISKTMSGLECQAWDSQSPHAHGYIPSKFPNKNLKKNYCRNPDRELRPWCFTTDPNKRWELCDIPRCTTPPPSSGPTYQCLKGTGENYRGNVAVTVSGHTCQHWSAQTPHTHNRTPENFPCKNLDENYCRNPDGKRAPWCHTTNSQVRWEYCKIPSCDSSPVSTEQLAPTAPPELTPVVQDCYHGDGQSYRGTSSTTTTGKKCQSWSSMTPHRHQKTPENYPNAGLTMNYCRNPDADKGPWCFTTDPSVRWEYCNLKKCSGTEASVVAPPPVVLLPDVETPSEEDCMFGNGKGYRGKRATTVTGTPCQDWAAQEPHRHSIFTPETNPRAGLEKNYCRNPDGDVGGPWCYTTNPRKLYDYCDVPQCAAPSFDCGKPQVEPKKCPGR

Compound: GCGYGRDGSPG (Based on Homo sapiens)
- cell spreading on PEG gels containing peptide [1]: has no biological activity

Compound: GCY-DLys-N-DArg-DCG (GCY[dK]N[dR]DCG; cysteine pairing not given here)
- degradation of peptide by plasmin (plasmin): unaffected by the plasmin at 24 hours

Compound: albumin: bovine serum albumin (Cohn fraction V), model protein
- time to complete dissolution of albumin solids ([2]; 50 mM PBS buffer, pH 7.4, absence of PEG): three
- time to dissolution of albumin particles ([2]; 10% PEG molecular weight 8000): six
- time to dissolve into a second liquid phase ([2]; 20% PEG molecular weight 8000): one
- dissolution of protein ([2]; 30 or 40% PEG molecular weight 8000): did not dissolve after seven days

Compound: N=C(N)NCCC[C@H](NC(=O)[C@H](CC(N)=O)NC(=O)[C@H](CCCCN)NC(=O)[C@H](Cc1ccc(O)cc1)NC(=O)[C@H](CS)NC(=O)CN)C(=O)N[C@@H](CC(=O)O)C(=O)N[C@@H](CS)C(=O)NCC(=O)O (H-GCYKNRDCG-OH; N-terminus and C-terminus assumed)
- solubility [3]: ≥ 120 mg/mL

Compound: GPQGIASQ
- kcat/Km relative to that of PQGIAG [4]: 130% (fast)

Compound: GPQGVAGQ
- kcat/Km relative to that of PQGIAG [4]: 9% (slower)

Compound: GPQGIFGQ
- kcat/Km relative to that of PQGIAG [4]: >300% (faster)

Compound: GPQGIWGQ
- kcat/Km relative to that of PQGIAG [4]: >700% (very fast)

Compound: GPQGIAGQ
- kcat/Km relative to that of PQGIAG [4]: 100% (normal)

Compound: GCGYGRGDSPG (not fully specified) [RGD-containing adhesion peptide incorporated into gels in a pendant fashion]
- cell spreading on PEG gels containing peptide [1]: Cells could only spread on gels that contained the peptide
- seeded cells spread [5]: approximately 50%

Compound: GPVGIAGQ
- kcat/Km relative to that of PQGIAG [4]: 30% (slow)

Compound: GPQGRAGQ
- kcat/Km relative to that of PQGIAG [4]: <5% (very slow)

Compound: NC(=O)C[C@H](N)C(=O)O [asparagine]
- pK of alpha amine ([6]; alpha amine of amino acid): 8.8

Compound: NCCCC[C@H](N)C(=O)O [lysine]
- pK of side chain epsilon amine ([6]; side chain epsilon amine): 10.80
